# Starred links: 1 amine or outer side, 2 acyl side, 3 side chain; linkers in the order of their positions; H or OH if unused. Non-standard residues stand in square brackets, D forms with d. *: point of attachment. Pipz(1-CH2CO,4-CH2CH2NH) = O=C(CN1CCN(CCN[*:1])CC1)[*:2]; C18 diacid = O=C(O)CCCCCCCCCCCCCCCCC(=O)*; γGlu = O=C(O)[C@H](CCC(=O)[*:2])N[*:1]; 2Pal = N[C@@H](Cc1ccccn1)C(=O)O; 4Pal = N[C@@H](Cc1ccncc1)C(=O)O; NMeL = CN[C@@H](CC(C)C)C(=O)O; NMeA = CN[C@@H](C)C(=O)O; Nle = CCCC[C@H](N)C(=O)O; Sar = CNCC(=O)O
# T1: human neuromedin U receptor 1 (human, UniProt Q9HB89 24-426)
# T1 sequence (looked up): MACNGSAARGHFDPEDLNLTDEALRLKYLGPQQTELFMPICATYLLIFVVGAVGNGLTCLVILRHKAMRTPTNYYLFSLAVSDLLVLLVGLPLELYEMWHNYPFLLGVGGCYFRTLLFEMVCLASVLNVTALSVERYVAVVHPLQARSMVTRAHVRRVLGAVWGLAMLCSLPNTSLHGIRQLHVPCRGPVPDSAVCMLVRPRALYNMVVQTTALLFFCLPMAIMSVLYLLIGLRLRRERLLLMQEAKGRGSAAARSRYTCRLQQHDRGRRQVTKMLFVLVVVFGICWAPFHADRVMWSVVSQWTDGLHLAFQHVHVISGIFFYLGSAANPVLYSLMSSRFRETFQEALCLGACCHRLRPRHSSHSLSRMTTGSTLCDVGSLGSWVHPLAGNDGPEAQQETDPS
# Biological target: T1, human neuromedin U receptor 1
# Test: cell-based or functional assay
row,Binder,EC50 (hNMUR1) buffer
1,EEXXXXXXXXXXYFLXXARG (HELM PEPTIDE1{[O=C(O)CCCCCCCCCCCCCCCCC(=O)[*:2]].[gGlu].[gGlu].[Sar].[Sar].[Sar].[Sar].[Sar].[Sar].[Sar].[Sar].[Sar].[O=C(CN1CCN(CCN[*:1])CC1)[*:2]].Y.F.[meL].[Nle].[Orn].[meA].R.G.[am]}$$$$V2.0; SMILES CCCC[C@H](NC(=O)[C@H](CC(C)C)N(C)C(=O)[C@H](Cc1ccccc1)NC(=O)[C@H](Cc1ccc(O)cc1)NC(=O)CN1CCN(CCNC(=O)CN(C)C(=O)CN(C)C(=O)CN(C)C(=O)CN(C)C(=O)CN(C)C(=O)CN(C)C(=O)CN(C)C(=O)CN(C)C(=O)CN(C)C(=O)CC[C@H](NC(=O)CC[C@H](NC(=O)CCCCCCCCCCCCCCCCC(=O)O)C(=O)O)C(=O)O)CC1)C(=O)N[C@@H](CCCN)C(=O)N(C)[C@@H](C)C(=O)N[C@@H](CCCNC(=N)N)C(=O)NCC(N)=O) [C18DA-gGlu2-Sar9-AEPipAc-Tyr-Phe-NMeLeu-Nle-Orn-NMeAla-Arg-Gly-NH2],> 1000 nM
2,EEEXXXXXXXXXXXXXXXXYFLXKARG (HELM PEPTIDE1{[O=C(O)CCCCCCCCCCCCCCCCC(=O)[*:2]].[gGlu].[gGlu].[gGlu].[Sar].[Sar].[Sar].[Sar].[Sar].[Sar].[Sar].[Sar].[Sar].[Sar].[Sar].[Sar].[Sar].[Sar].[Sar].[O=C(CN1CCN(CCN[*:1])CC1)[*:2]].Y.F.[meL].[Nle].K.[meA].R.G.[am]}$$$$V2.0; SMILES CCCC[C@H](NC(=O)[C@H](CC(C)C)N(C)C(=O)[C@H](Cc1ccccc1)NC(=O)[C@H](Cc1ccc(O)cc1)NC(=O)CN1CCN(CCNC(=O)CN(C)C(=O)CN(C)C(=O)CN(C)C(=O)CN(C)C(=O)CN(C)C(=O)CN(C)C(=O)CN(C)C(=O)CN(C)C(=O)CN(C)C(=O)CN(C)C(=O)CN(C)C(=O)CN(C)C(=O)CN(C)C(=O)CN(C)C(=O)CN(C)C(=O)CC[C@H](NC(=O)CC[C@H](NC(=O)CC[C@H](NC(=O)CCCCCCCCCCCCCCCCC(=O)O)C(=O)O)C(=O)O)C(=O)O)CC1)C(=O)N[C@@H](CCCCN)C(=O)N(C)[C@@H](C)C(=O)N[C@@H](CCCNC(=N)N)C(=O)NCC(N)=O) [C18DA-gGlu3-Sar15-AEPipAc-Tyr-Phe-NMeLeu-Nle-Lys-NMeAla-Arg-Gly-NH2],> 1000 nM
3,EEEEXXXXXXXXXXXXXYFLXXPRG (HELM PEPTIDE1{[O=C(O)CCCCCCCCCCCCCCCCC(=O)[*:2]].[gGlu].[gGlu].[gGlu].[gGlu].[Sar].[Sar].[Sar].[Sar].[Sar].[Sar].[Sar].[Sar].[Sar].[Sar].[Sar].[Sar].[O=C(CN1CCN(CCN[*:1])CC1)[*:2]].Y.F.[meL].[Nle].[Orn].P.R.G.[am]}$$$$V2.0; SMILES CCCC[C@H](NC(=O)[C@H](CC(C)C)N(C)C(=O)[C@H](Cc1ccccc1)NC(=O)[C@H](Cc1ccc(O)cc1)NC(=O)CN1CCN(CCNC(=O)CN(C)C(=O)CN(C)C(=O)CN(C)C(=O)CN(C)C(=O)CN(C)C(=O)CN(C)C(=O)CN(C)C(=O)CN(C)C(=O)CN(C)C(=O)CN(C)C(=O)CN(C)C(=O)CN(C)C(=O)CC[C@H](NC(=O)CC[C@H](NC(=O)CC[C@H](NC(=O)CC[C@H](NC(=O)CCCCCCCCCCCCCCCCC(=O)O)C(=O)O)C(=O)O)C(=O)O)C(=O)O)CC1)C(=O)N[C@@H](CCCN)C(=O)N1CCC[C@H]1C(=O)N[C@@H](CCCNC(=N)N)C(=O)NCC(N)=O) [C18DA-gGlu4-Sar12-AEPipAc-Tyr-Phe-NMeLeu-Nle-Orn-Pro-Arg-Gly-NH2],870 nM
4,"{C18 diacid}-[γGlu][γGlu][γGlu][Sar][Sar][Sar][Sar][Sar][Sar][Sar][Sar][Sar][Sar][Sar][Sar][Sar][Sar][Sar][Pipz(1-CH2CO,4-CH2CH2NH)]YF[NMeL][Nle][2Pal][NMeA]RG-NH2 (SMILES CCCC[C@H](NC(=O)[C@H](CC(C)C)N(C)C(=O)[C@H](Cc1ccccc1)NC(=O)[C@H](Cc1ccc(O)cc1)NC(=O)CN1CCN(CCNC(=O)CN(C)C(=O)CN(C)C(=O)CN(C)C(=O)CN(C)C(=O)CN(C)C(=O)CN(C)C(=O)CN(C)C(=O)CN(C)C(=O)CN(C)C(=O)CN(C)C(=O)CN(C)C(=O)CN(C)C(=O)CN(C)C(=O)CN(C)C(=O)CN(C)C(=O)CC[C@H](NC(=O)CC[C@H](NC(=O)CC[C@H](NC(=O)CCCCCCCCCCCCCCCCC(=O)O)C(=O)O)C(=O)O)C(=O)O)CC1)C(=O)N[C@@H](Cc1ccccn1)C(=O)N(C)[C@@H](C)C(=O)N[C@@H](CCCNC(=N)N)C(=O)NCC(N)=O) [C18DA-gGlu3-Sar15-AEPipAc-Tyr-Phe-NMeLeu-Nle-2Pal-NMeAla-Arg-Gly-NH2]",> 1000 nM
5,"{C18 diacid}-[γGlu][γGlu][γGlu][Sar][Sar][Sar][Sar][Sar][Sar][Sar][Sar][Sar][Sar][Sar][Sar][Sar][Sar][Sar][Pipz(1-CH2CO,4-CH2CH2NH)]YF[NMeL][Nle][4Pal]PRG-NH2 (SMILES CCCC[C@H](NC(=O)[C@H](CC(C)C)N(C)C(=O)[C@H](Cc1ccccc1)NC(=O)[C@H](Cc1ccc(O)cc1)NC(=O)CN1CCN(CCNC(=O)CN(C)C(=O)CN(C)C(=O)CN(C)C(=O)CN(C)C(=O)CN(C)C(=O)CN(C)C(=O)CN(C)C(=O)CN(C)C(=O)CN(C)C(=O)CN(C)C(=O)CN(C)C(=O)CN(C)C(=O)CN(C)C(=O)CN(C)C(=O)CN(C)C(=O)CC[C@H](NC(=O)CC[C@H](NC(=O)CC[C@H](NC(=O)CCCCCCCCCCCCCCCCC(=O)O)C(=O)O)C(=O)O)C(=O)O)CC1)C(=O)N[C@@H](Cc1ccncc1)C(=O)N1CCC[C@H]1C(=O)N[C@@H](CCCNC(=N)N)C(=O)NCC(N)=O) [C18DA-gGlu3-Sar15-AEPipAc-Tyr-Phe-NMeLeu-Nle-4Pal-Pro-Arg-Gly-NH2]",> 1000 nM
6,EEEXXXXXXXXXXXXXXXXYFLXKPRG (HELM PEPTIDE1{[O=C(O)CCCCCCCCCCCCCCCCC(=O)[*:2]].[gGlu].[gGlu].[gGlu].[Sar].[Sar].[Sar].[Sar].[Sar].[Sar].[Sar].[Sar].[Sar].[Sar].[Sar].[Sar].[Sar].[Sar].[Sar].[O=C(CN1CCN(CCN[*:1])CC1)[*:2]].Y.F.[meL].[Nle].K.P.R.G.[am]}$$$$V2.0; SMILES CCCC[C@H](NC(=O)[C@H](CC(C)C)N(C)C(=O)[C@H](Cc1ccccc1)NC(=O)[C@H](Cc1ccc(O)cc1)NC(=O)CN1CCN(CCNC(=O)CN(C)C(=O)CN(C)C(=O)CN(C)C(=O)CN(C)C(=O)CN(C)C(=O)CN(C)C(=O)CN(C)C(=O)CN(C)C(=O)CN(C)C(=O)CN(C)C(=O)CN(C)C(=O)CN(C)C(=O)CN(C)C(=O)CN(C)C(=O)CN(C)C(=O)CC[C@H](NC(=O)CC[C@H](NC(=O)CC[C@H](NC(=O)CCCCCCCCCCCCCCCCC(=O)O)C(=O)O)C(=O)O)C(=O)O)CC1)C(=O)N[C@@H](CCCCN)C(=O)N1CCC[C@H]1C(=O)N[C@@H](CCCNC(=N)N)C(=O)NCC(N)=O) [C18DA-gGlu3-Sar15-AEPipAc-Tyr-Phe-NMeLeu-Nle-Lys-Pro-Arg-Gly-NH2],> 1000 nM

# Source: US20240279278A1, “NMU RECEPTOR 2 AGONISTS” (Boehringer Ingelheim International GmbH, priority 2023, published 2024)
